Measured values: paper PMC10522485

Target: CLIP102-120 labeled with FITC (human)
Experiment: fluorescence polarisation; dissociation of 100 nM DR/CLIP-FITC complexes with 20 µM unlabeled CLIP102-120 as competitor, no DM (intrinsic off-rate), 37 °C, phosphate/citrate buffer pH 5.2

Substance	koff [s⁻¹]
HLA-DR DRA*01:01/DRB1*03:01, insect cell-expressed (complex)	0.000317
HLA-DR DRA*01:01/DRB1*04:01, insect cell-expressed (complex)	4.23e-05
HLA-DR DRA*01:01/DRB1*08:01, insect cell-expressed (complex)	6.88e-05
HLA-DR DRA*01:01/DRB1*08:02, insect cell-expressed (complex)	1.01e-05
HLA-DR DRA*01:01/DRB1*15:01, insect cell-expressed (complex)	0.000223

Continued, values first:

koff [s⁻¹]	Substance
1.06e-05	HLA-DR DRA*01:01/DRB1*01:01, insect cell-expressed (complex)
2.45e-05	HLA-DR DRA*01:01/DRB1*01:02, insect cell-expressed (complex)
3.22e-05	HLA-DR DRA*01:01/DRB1*04:04, insect cell-expressed (complex)
3.25e-05	HLA-DR DRA*01:01/DRB1*07:01, insect cell-expressed (complex)
7.9e-05	HLA-DR DRA*01:01/DRB1*13:01, insect cell-expressed (complex)
0.000148	HLA-DR DRA*01:01/DRB1*13:02, insect cell-expressed (complex)
6.27e-05	HLA-DR DRA*01:01/DRB1*14:01, insect cell-expressed (complex)

Target: CLIP102-120 labeled with FITC (human)
Experiment: fluorescence polarisation; equilibrium; empty DR from bacterial expression varied from 4 µM to 7.8125 nM (2-fold dilutions), CLIP-FITC fixed at 100 nM

Substance	Kd [µM]
empty HLA-DR DRA*01:01/DRB1*01:01 from bacterial expression (complex)	0.414
empty HLA-DR DRA*01:01/DRB1*01:01(R71A) from bacterial expression (complex)	1.36
empty HLA-DR DRA*01:01/DRB1*01:02 from bacterial expression (complex)	0.325
empty HLA-DR DRA*01:01/DRB1*01:02(R71A) from bacterial expression (complex)	0.508

More lines, now with the values ahead:

Kd [µM]	Substance
1.11	empty HLA-DR DRA*01:01(N62A)/DRB1*01:01 from bacterial expression (complex)
0.512	empty HLA-DR DRA*01:01(N62A)/DRB1*01:02 from bacterial expression (complex)
